Our source for the value values is patent US20260109761A1 (IP2IPO INNOVATIONS, published 2026).

What all share (assay): peptide-array ELISA on mimics of the human ZIP12 ECD (peroxidase conjugate, ABTS, CCD read-out); antibody concentration of this value not given
In assay [1] the target is T1, LOOP15 37-51 SEQ ID No: 240.
T1 construct: constrained mimic
T1 peptide: CRGSSGQPADLLQVC
Here is the method:
(§1) The binding of antibody to each of the synthesized peptides was tested in a peptide-based ELISA. The peptide arrays were incubated with primary antibody solution (overnight at 4° C.). After washing, the peptide arrays were incubated with a 1/1000 dilution of an appropriate antibody peroxidase conjugate for one hour at 25° C. After washing, the peroxidase substrate 2,2′-azino-di-3-ethylbenzthiazoline sulfonate (ABTS) and […] of 3 percent H2O2 were added. After one hour, the colour development was measured. The colour development was quantified with a charge coupled device—camera and an image processing system.

Assay [2] addresses T2, LIN15 37-51 SEQ ID No: 226.
T2 peptide: RGSSGQPADLLQVLS
Here is the method: as §1

Assay [3] has as its target T3, LIN15 36-50 SEQ ID No: 225.
T3 peptide: SRGSSGQPADLLQVL
Here is the method:
as §1

The target in assay [4] is T4, LOOP15 36-50 SEQ ID No: 239.
T4 construct: constrained mimic
T4 peptide: CSRGSSGQPADLLQC
Here is the method: as §1

The target of assay [5] is T5, HEL19 37-55 SEQ ID No: 244.
T5 construct: alpha-helical mimic
T5 peptide: CRGSCGQPADLLQVLSAGD
Here is the method: as §1

Assay [6] concerns the target T6, BETA22 32-53 SEQ ID No: 249 (not fully specified).
T6 construct: beta-turn mimic
T6 peptide: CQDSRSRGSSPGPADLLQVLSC
Here is the method: as §1

Assay [7] deals with T7, LOOP15 35-49 SEQ ID No: 238.
T7 construct: constrained mimic
T7 peptide: CRSRGSSGQPADLLC
Here is the method:
as §1

The target in assay [8] is T8, LIN15 35-49 SEQ ID No: 224.
T8 peptide: RSRGSSGQPADLLQV
Here is the method: as §1

For assay [9], the target named is T9, HEL19 33-51 SEQ ID No: 243.
T9 construct: alpha-helical mimic
T9 peptide: CDSRCRGSSGQPADLLQVL
Here is the method:
as §1

B1: H3_W99H_L1 (antibody, V domains shown)
VH: QVQLVESGGGVVQPGRSLRLSCAASGFTFSDYGMHWVRQAPGKGLEWVAYISSGGTTIYYADTVKGRFTISRDNSKNTLYLQMNSLRAEDTAVYYCARHTNLYAMDYWGQGTTVTVSS
VL: DIVLTQSPDSLAVSLGERATINCRASKSVSTQGYSYMHWYQQKPGQPPKFLIYLASNLESGVPDRFSGSGSGTDFTLTISSLQAEDVAVYYCQHSREVPYTFGGGTKVEIKR
notes: Fc null human IgG1 / human kappa
Regarding B1, the value in assay [1] worked out at 1830; in assay [2], 2570; in [3], 2650; in assay [4], 976; in assay [5], 2760; in assay [6] it was 1350. Moreover, the value was 901 in assay [7], 2460 in assay [8] and 2610 in assay [9].
